Assay results: the DeepSol protein solubility set

experiment: soluble on expression in E. coli; label from the status in PepcDB or PDB records

Soluble on expression in E. coli, not soluble:
MAHHHHHHMCLSTCLLYLKQIREDSQYVIISRIDHKTCYKCISFCNLKYFVVDMIYKNEELYTDLEGIEKLLEEYKEKICCVMSATSVYAPRNSDDIIKIAHICKKYNTPHIINNAFGLQCTYICKEIQKCFESQGRVDFVVQSCDKNFLVPVNGGIIFSSNREQMKLLKKSYPGRTPVNAYLDLFITLLEMGKDKIMNLRKERVDNFNWLKEKIQLLCLKYNLELIKTSKNFISMAINLNHMYTHCNTDNPKVINMLGSMLFYRNVTGHRVICSPLLNRNYLLKKAREKYMNMLENKKGNDAMMITSNESNEENVKRDLSKKEADIYDNMYSNGFDEIKSVENDMLQNKSNIIKAYEKQIEEEFDKLNEPNTIVIGNHKFKNFGSSYNSYPISYIAFSCVVGIERPELENFVSKLDNAIDYFIKFFKKKKEEELK, KASEEGIGGRKTCEYYPCHFEGQNCTFCFCPFYPCENEKTGGKWIQSSRGGRVWSCVDCHLVHKKEIAQKILDCLMHEGDTDELVKVAWKEVMEPIL, MGSDKIHHHHHHMYYRKRFCVGRNNERRMKAMARDTGLDHLGAMRAFVRVVEMGSFSAVAKEMHVSTSTVARKITAIEEALGVALLHRSTHSVTLTEAGHIYLERAVTLIADLDDTLRVVAELNAQPSGPLKLTAPVAFGRRHLAPLIAPFLARYPTIQLDVRLTDNHNDLVAGGYDLDIHEGENYLDNLVVHRLSRNDSILCATPGYLDRCGRPATPDDLLHHNCLRYVHPEGDPRWELVRGDARHSVLPAGNLVTDHSELLLEATCAGLGIAEFEIWLVRDLLASGRLEAVLPRYRLHNKLTGEHIYIAYLANRRSSAKLRVLKDFLADQLAHIGELSEVELMKIRDAGA, MAHHHHHHMRRVIHGEVRHHNTDTNNTRIPWDFTMASYEEINNVILPKFPRSRRRSAIIPLLHLAQRQQGGYIPVTAMYKIARICEVPPMQVFETVTFYSMFNRQPVGKYHIQFCVTTPCMLCGCDELVHRTEAYLNVKMHGTTRDGLITLGEMQCLGACVNAPMLVVSDYSRPPHFSYDFVEDLTWDSVKELIENLREGRPFKVGTCREDRRWSEPAGGRTSIFMKEPPKPYCRDLDAKPVQPGASTGGAAKK, MGSDKIHHHHHHVFKYMKKLLIVTTVPETLATILQSQPTFLNEEYEVFLASSTGIQQVADIENVRCFTINMYRGYSPFKDLFSIFKMFYLLLRIKPHIIHSYTPKAGLVCAIAAYFARVPHRIHTFTGLLFPTATGFKHLILKFTDKLVIYLNTHIVCEGYGVWRQFYRFGFSESKFEVIGNGNIAGVDLCYFDPDIVDLSVKSNLISSYKLEGCKVFLYVGRLNVDKGIKELVNAFINLNDNSKLLIVGALDTTAPPDDDTLLKIKVNPNIIDFGFLNDIRPIMSISSCLILPSYREGFPNVVLQAGAMELPCIVTDIPGCNEIISHDVNGWLVKPKCIDALESAMNDFLSLDNAKLLSVKKEASENIKTNFERSFYQKKLLNFYNKVLEND, MAVSPDDPLILVGRVAGGFGVRGEVRITTYTEDPLSIAGFKALKRQDGSPALTIASARKTKDGVVCRCPGVETKEAADALRGLRLYVPRSALPEPDDDEFYLTDLVGLTVRHIQTDQLLGRVKSVQNFGAGDILEITPDLGGPTWYLPFTRAAVPEVRVSEGLILADPPALVGDHEGPEEKGLDENEELGDRDAAALEHHHHHH, MLNQSLRPLVNVQVRSVSSKYPRPTPRHFKRRLFEAALKPELPPTVNMCIPPGLIKREHTGKSKEYSDVELALSNLVRDWMVREEFRVMAVCQFLPVPGRTLWFAKNQLRSKNIEFRSYGNKILKKIFDKTPMSSLNTVLVGNNAILLAKDISAIKSILQETDKLNWIEPLVMMADGRIVDMVDARELAKLSSLEDLRAHTVQLLGQQVAQVTISLDTVTRHLPSLLDSHISTNQEAKK, MSWFISRKDIAYISRGAKLLGCGGGGDTKTTQRLLESIMKEDDQINVLQYEDLTEQVVATVCFAGSPILYEEQLPRGDEGQMVFQEYQLKTNKKIDAVISAEIGGMNALIPLVVALQTGCAVVDGDGMGRAFPEFTMTTFYMHGLPISPLILLTRDGKQHLIEGAANDRIVRDNRQLLNMHGGFGHFICCGADANVVKNMMVSGTLKLAYRLGRAMEQDQLSAAAGWTAVEDEWENSIYGKPTLLIKGTVESVVRTFDQEQIVGELTIIGKQRFIGTTLTVSFHNEFIAVKKEGQYLVMVPDLIIIVNAKTFLPYTTNEIQRGMSVLIYAIPAPNVLRQKQMIDHVGPQAYGLDVPYEPFFLEHHHHHH, MSLEKTKLPWDEFFSLNKDINHTYFTPEDFSGDEDLIAKTTEQFVKQEIVPQMENIEQHNYKVSRQLFEKAGELGLLGIEVPEDYGGFELGKAVSGLVAEKMGYAGAFSVSFNIHAGVGTLPYIYYGTKEQKEKYLPKIASGEWIGAYALTEPNAGSDALSAKTSAVLNEEGTAWKLNGEKQWITNAHMADVYVVFAKTNKGMTAFIVERTCEGVSIGLEEKKMGIKGSSTATLILEDVVIPAENVLGEVGKGHHVALNILNFARLKLAFGNIGTAKQAIGLSVQYGKERKQFQTELVDFTMIQEKIANMIIATYGAESAAYRTAGVIDEAIHESDEDLMKKMSQFAIECALNKVNASETLAYIVDEAVQIHGGYGYMQEYEVERLYRDARISRIFEGTNEINRLTVAKMLMKQIEQLEEGHHHHHH, LFNYKEGDSFFIRGPYGNGFDVSLYEGREIVVVAGGSALAPVRGIVEYFYNNKEKCEKFKLIVGFKSPKDILFADDLKRWSKKLDILVTVDGAEEGYSGNVGLVTKYIPELDMKDINNTSIVVVGPPMMMKFTVEEFLKRDLDEKNIWV, MGSDKIHHHHHHMPKERVDVLAYKQGLFNTREQAKRGVMAGLVVNVINGERYDKPGEKIDEATELKLKGDKLKYVSRGGLKLEKALKVFVISVDGQITLDIGASTGGFTDVMLQNGAQLVYAVDVGTNQLVWKLRQDERVCSMEQYNFRYAEPSDFERGQPTFASIDVSFISLNLILPALSKILTDGGQVVALIKPQFEAGREQIGKHGIVKDKSVHETVLETVTTFATNYGFTVKELDFSPIQGGHGNIEFLAYLEKSAQAQNQVLTKIKSIVEQAHKEFKKNEET

Soluble on expression in E. coli, soluble:
MSLTTHGKPVLVATDLSARTDRAVDRATQLAGEWGVRLIVLHAIEPDSRLHARPELANQAMREVLADPEADVDILPALDLAPTAIVEAAKSADCGLIVTGVARFNHVGDYFIGTAVDHVVRHATVPVLVVKQRPHNAYRTIVVATDYSSCSRLALLTAAEFFPDAAIHLVHAYHVPYEAWLRSDEVREDVTREAQRELDAFVLDPAIPANVRQRISAKLVYGETHTVLSSTAYELGADLLVLGTHGSGGYFAAVMGRMAESLLRCADIDTLVVREIGSTGSEGHHHHHH, MAAKLQKWRNLAGRLDLMNRSGAVSTRRFLHEGPDTVEELLERHLAKKEKPIIDHDEAEFLNRRRLTSTRREALSLYRDILRATRFFTWIDSRGNLWRDVLRENARKEFEAARFETDPEVITRLLIGGSDAVSSALDKLAEKQREMIEKQRRGDQR, SGDRSMVEVLADHPGELVRTDSPNFLSSVLPTHWRSNKTLPIAFKVVALGDVPDGTLVTVMAGNDENYSAELRNATAAMKNQVARFNDLRFVGRSGRGKSFTLTITVFTNPPQVATYHRAIKITVDGPREPRRHRQKLDD, TQQPQQDEMPSPTFLTQVKESLSSYWESAKTAAQNLYEKTYLPAVDEKLRDLYSKSTAAMSTYTGIFTDQVLSVLKGEE, MHHHHHHSSGVDLGTENLYFQSMNNVEKPDNDEDESEVPSLPLGLTGAFEDTSFASLCNLVNENTLKAIKEMGFTNMTEIQHKSIRPLLEGRDLLAAAKTGSGKTLAFLIPAVELIVKLRFMPRNGTGVLILSPTRELAMQTFGVLKELMTHHVHTYGLIMGGSNRSAEAQKLGNGINIIVATPGRLLDHMQNTPGFMYKNLQCLVIDEADRILDVGFEEELKQIIKLLPTRRQTMLFSATQTRKVEDLARISLKKEPLYVG, MTKVHVVLRKEDIDEMALADRKVAVVFDVLLATSSITAVLAAGARSVIPVRDAEEAKEIALRLPEGSYELVGEYEGRTIAGFHPPAPLFLQTVCPGKTVVLSTTNGTVAIRRAQPARAVYAASLLNSPAVSEHICRLHQEETIIVICSGSSGRFCLEDFYGAGYFVHCLIEQGINAAELSDSATAAWFFYRQYSDEGKAKEVLSASRVGRWMTAYGLEKEIDYINRHGSLSAVPKLELGPFGLELRNMASTKVAKEGISP, SEVLRPQLIRIDGRNYRKNPVQEQTYQHEEDEEDFYQGSMECADEPCDAYEVEQTPQGFRSTLRAPSLLYKHIVGKRGDTRKKIEMETKTSISIPKPGQDGEIVITGQHRNGVISARTRIDVLLDTFRRKQPFTHFLAFFLNEVEVQEGFLRFQEEVLAKCSMDHGVDSSIFQNPKKLHLTIGMLVLLSEEEIQQTCEMLQQCKEEFINDISGGKPLEVEMAGIEYMNDDPGMVDVLYAKVHMKDGSNRLQELVDRVLERFQASGLIVKEWNSVKLHATVMNTLFRKDPNAEGRYNLYTAEGKYIFKERESFDGRNILKLFENFYFGSLKLNSIHISQRFTVDSFGNYASCGQIDFS, MSLRESMRIELELQTDNFTVIPYNHQYYLASAIYNKIHSANPAYAKRLHNYQKFKFFTFSLLQIRKRVIRKEGIETIDGKAYLYISSPNNEFIENFVAGLLEDGKLRVGNVEFFVRKAKILPIPKKFNILKTISPIYLKTMIETEDGLKTYDLLPNNSKFYENLKNNLKKKYEAFYNEKCDMNFEFEVLKFRPKRMRIKNDIYCRCSEMVFKVWGDYDLIKFGYECGFGEKNSMGFGMVVNVEDKNQKNKKLKTKIEGHHHHHH, MKHLKFQSVFDIIGPVMIGPSSSHTAGAVRIGKVVHSIFGEPSEVTFHLYNSFAKTYQGHGTDKALVAGILGMDTDNPDIKNSLEIAHQKGIKIYWDILKDSNSPHPNTAKITVKNGDRSMSITGVSIGGGNIQVTELNGFSVSLTMNTPTLIIVHQDIPGMIAKVTDILSDFNINIAQMNVTRESAGEKAIMIIEVDSRDCQQAVKKIEAIPHLHNVNFFD, MSLKTLSLCPICLKRIPATILEEDGKIIIKKTCPEHGEFKDIYWGDAELYKKFDKYEFIGKIEVTNTKVKNGCPYDCGLCPNHKSTTILANIDVTNRCNLNCPICFANANKSGKVYEPSFEDIKRMMENLRKEIPPTPAIQFAGGEPTVRSDLPELIKLARDMGFLHVQLATNGIKLKNINYLKKLKEAGLSTIYLQFDGISEKPYLVARGKNLLPIKQKVIENCKKVGFDSVVLVPTLVRGVNDNEVGGIIRYAAENVDVVRGINFQPVSFTGRVDEKTLLEGRITIPDFIKLVEEQTDGEITEEDFYPVPSVAPISVLVEKLTNDRKPTLSSHQHCGTSTYVFVDEDGKLIPITRFIDVEGFLEIVKEKIEEIGKSKMHDVKVLGEIALKLPSLIDLDKAPKSVNIKKIIDLILSVLKSDYSALAELHYHMLMISCMHFMDAYNFDVKRVMRCCIHYATPDDRIIPFCTYNTLHRQEVEEKFSIPLEEWKRMHKIGGEDDREDYEGHHHHHH
